According to patent publication US11278600B2, “Human alpha-galactosidase variants” (Codexis, Inc., priority 2014, dated 2022):
Residue numbers refer to the chain shown, from its start.

Legend:
Assay type in all cases: biochemical
[1] = HTP-analysis of yeast culture supernatants, no challenge (MUGal hydrolysis); conditions: activity of the variant/activity of WT GLA (SEQ ID NO: 5), yeast supernatant
Experimental: (§1) Yeast (INVSc1) cells transformed with vectors expressing GLA and GLA variants using the lithium acetate method were selected on SD-Ura agar plates. After 72 h incubation at 30° C. colonies were placed into the wells of Axygen® 1.1 ml 96-well deep well plates filled with 200 μl/well SD-Ura broth (2 g/L SD-Ura, 6.8 g/L yeast nitrogen base without amino acids [Sigma Aldrich]), 3.06 g/L sodium dihydrogen phosphate, 0.804 g/L disodium hydrogen phosphate, pH 6.0 supplemented with 6% glucose. The cells were allowed to grow for 20-24 hours in a Kuhner shaker (250 rpm, 30° C., and 85% relative humidity). Overnight culture samples (20 μL) were transferred into Corning Costar® 96-well deep plates filled with 380 µL of SD-ura broth supplemented with 2% glucose. The plates were incubated for 66-84 h in a Kuhner shaker (250 rpm, 30° C., and 85% relative humidity). The cells were then pelleted (4000 rpm×20 min), and the supernatants isolated and stored at 4° C. prior to analysis.
GLA variant activity was determined by measuring the hydrolysis of 4-methylumbelliferyl α-D-galactopyranoside (MUGal). For this assay, 5-50 μL, of yeast culture supernatant produced as described above, was mixed with 0-45 μL, of McIlvaine Buffer (McIlvaine, J. Biol. Chem., 49:183-186 [1921]), pH 4.8 and 50 μL of 2 mM MUGal in 50 mM citrate, 200 mM KCl, pH 4.6 in a 96-well, black, opaque bottom plate. The reactions were mixed briefly and incubated at 37° C. for 30-180 minutes, prior to quenching with 100 μL, of 1 M sodium carbonate. Hydrolysis was analyzed using a SpectraMax® M2 microplate reader monitoring fluorescence (Ex. 355 nm, Em. 448 nm).

[2] = HTP-analysis of supernatants pretreated with acid (MUGal hydrolysis); conditions: challenge at pH 4.3; activity of the variant/activity of WT GLA (SEQ ID NO: 5); yeast supernatant
Experimental: as §1
GLA variants were challenged with acidic buffer to simulate the extreme pHs that the variants may encounter in lysosomes. First, 50 μL of yeast culture supernatant and 50 uL of McIlvaine buffer (pH 3.3-4.3) were added to the wells of a 96-well round bottom plate. The plates were sealed with a PlateLoc Thermal Microplate Sealer (Agilent) and incubated at 37° C. for 1-3 h. For the assay, 10-50 uL of acid-pH-challenged sample was mixed with 0-40 μL, of McIlvaine buffer pH 4.8, 25 μL, of 1 M citrate buffer pH 4.3 and 25 μL, of 4 mM MUGal in McIlvaine buffer pH 4.8. The reactions were mixed briefly and incubated at 37° C. for 30-180 minutes, prior to quenching with 100 μL, of 1 M sodium carbonate. Hydrolysis was analyzed using a SpectraMax® M2 microplate reader monitoring fluorescence (Ex. 355 nm, Em. 448 nm).

[3] = HTP-analysis of supernatants pretreated with base (MUGal hydrolysis); conditions: challenge at pH 7.0; activity of the variant/activity of WT GLA (SEQ ID NO: 5); yeast supernatant
Experimental: as §1
GLA variants were challenged with basic (neutral) buffer to simulate the pHs that the variants encounter in the blood following their administration to a patient. First, 50 μL of yeast culture supernatant and 50 uL of McIlvaine buffer (pH 7.0-8.2) or 200 mM sodium bicarbonate (pH 9.1-9.7) were added to the wells of a 96-well round bottom plate. The plates were sealed and incubated at 37° C. for 1-18 h. For the assay, 10-50 μL of basic-pH-challenged sample was mixed with 0-40 μL, of McIlvaine buffer pH 4.8, 25 μL, of 1 M citrate buffer pH 4.3 and 25 μL, of 4 mM MUGal in McIlvaine buffer pH 4.8. The reactions were mixed briefly and incubated at 37° C. for 30-180 minutes, prior to quenching with 100 μL, of 1 M sodium carbonate. Hydrolysis was analyzed using a SpectraMax® M2 microplate reader monitoring fluorescence (Ex. 355 nm, Em. 448 nm).

B1: 3 (protein)
chain: LDNGLARTPTMGWLHWERFMCNLDCQEEPDSCISEKLFMEMADLMVSDGWKDAGYEYLCIDDCWMAPQRDSEGRLQADPQRFPHGIRQLANYVHSKGLKLGIYADVGNKTCAGFPGSFGYYDIDAQTFADWGVDLLKFDGCYCDSLENLADGYKHMSLALNRTGRSIVYSCEWPLYMWPFQKPNYTEIRQYCNHWRNFADIDDSWKSIKSILDWTSFNQERIVDVAGPGGWNDPDMLVIGNFGLSWNQQVTQMALWAIMAAPLFMSNDLRHISPQAKALLQDKDVIAINQDPLGKQGYQLRQGDNFEVWERPLSGLAWAVAMINRQEIGGPRSYTIAVASLGKGVACNPACFITQLLPVKRKLGFYEWTSRLRSHINPTGTVLLQLENTMQMSLKDLL
modifications: Synthetic Polypeptide sequence of Variant No. 3 of mature Human GLA
Which “Relative Activity of GLA Variants After No Challenge (NC)” value [1] does the source give for B1 here?
Its value is “+ (+ = 0.5 to 1.5 relative activity over WT GLA (SEQ ID NO: 5))”.

What about the “Relative Activity of GLA Variants After Challenge at pH 4.3” value (“Relative Activity … at pH 4.3” for short) [2] of the same molecule?
The value was “+ (+ = 0.5 to 1.5 relative activity over WT GLA (SEQ ID NO: 5))”.

What about the “Relative Activity of GLA Variants After Challenge at pH 7.0” value (“Relative Activity … at pH 7.0” for short) [3] of the same molecule?
Its value is “+ (+ = 0.5 to 1.5 relative activity over WT GLA (SEQ ID NO: 5))”.

B2: 14 (protein)
chain: B1 chain with D48E, R373K, I376V
modifications: Synthetic Polypeptide sequence of Variant No. 14 of mature Human GLA
Which “Relative Activity of GLA Variants After No Challenge (NC)” value [1] does the source give for B2 here?
The value was “+ (+ = 0.5 to 1.5 relative activity over WT GLA (SEQ ID NO: 5))”.

What about the “Relative Activity … at pH 4.3” value [2] of the same molecule?
The value was “+++ (+++ = >2.5 relative activity over WT GLA (SEQ ID NO: 5))”.

What about the “Relative Activity … at pH 7.0” value [3] of the same molecule?
The value was “++ (++ = >1.5 to 2.5 relative activity over WT GLA (SEQ ID NO: 5))”.

B3: 9 (protein)
chain: B1 chain with Q302K, R373K, I376V
modifications: Synthetic Polypeptide sequence of Variant No. 9 of mature Human GLA
With B3 as the molecule, how does the “Relative Activity of GLA Variants After No Challenge (NC)” value [1] read?
Its value is “+ (+ = 0.5 to 1.5 relative activity over WT GLA (SEQ ID NO: 5))”.

What about the “Relative Activity … at pH 4.3” value [2] of the same molecule?
The value was “+++ (+++ = >2.5 relative activity over WT GLA (SEQ ID NO: 5))”.

What about the “Relative Activity … at pH 7.0” value [3] of the same molecule?
The value was “+ (+ = 0.5 to 1.5 relative activity over WT GLA (SEQ ID NO: 5))”.

B4: 10 (protein)
chain: B1 chain with D48E, I208V, N247D
modifications: Synthetic Polypeptide sequence of Variant No. 10 of mature Human GLA
With B4 as the molecule, how does the “Relative Activity of GLA Variants After No Challenge (NC)” value [1] read?
The value was “++ (++ = >1.5 to 2.5 relative activity over WT GLA (SEQ ID NO: 5))”.

What about the “Relative Activity … at pH 4.3” value [2] of the same molecule?
The value was “+++ (+++ = >2.5 relative activity over WT GLA (SEQ ID NO: 5))”.

And the “Relative Activity … at pH 7.0” value [3]?
Its value is “++ (++ = >1.5 to 2.5 relative activity over WT GLA (SEQ ID NO: 5))”.

B5: 7 (protein)
chain: B1 chain with N247D, Q299R, Q302K, R373K, I376V
modifications: Synthetic Polypeptide sequence of Variant No. 7 of mature Human GLA
Which “Relative Activity of GLA Variants After No Challenge (NC)” value [1] does the source give for B5 here?
The value was “+ (+ = 0.5 to 1.5 relative activity over WT GLA (SEQ ID NO: 5))”.

And the “Relative Activity … at pH 4.3” value [2]?
The value was “++ (++ = >1.5 to 2.5 relative activity over WT GLA (SEQ ID NO: 5))”.

And the “Relative Activity … at pH 7.0” value [3]?
The value was “+ (+ = 0.5 to 1.5 relative activity over WT GLA (SEQ ID NO: 5))”.

B6: 6 (protein)
chain: B1 chain with I208V, R373K, I376V
modifications: Synthetic Polypeptide sequence of Variant No. 6 of mature Human GLA
Which results are given for B6?
Relative Activity of GLA Variants After No Challenge (NC) [1]: + (+ = 0.5 to 1.5 relative activity over WT GLA (SEQ ID NO: 5)); Relative Activity of GLA Variants After Challenge at pH 4.3 [2]: +++ (+++ = >2.5 relative activity over WT GLA (SEQ ID NO: 5)); Relative Activity of GLA Variants After Challenge at pH 7.0 [3]: + (+ = 0.5 to 1.5 relative activity over WT GLA (SEQ ID NO: 5))

B7: 11 (protein)
chain: B1 chain with D48E, I208V, N247D, Q299R, R373K, I376V
modifications: Synthetic Polypeptide sequence of Variant No. 11 of mature Human GLA
For B7, which “Relative Activity of GLA Variants After No Challenge (NC)” value [1] is on record?
The value was “+ (+ = 0.5 to 1.5 relative activity over WT GLA (SEQ ID NO: 5))”.

And the “Relative Activity … at pH 4.3” value [2]?
Its value is “+++ (+++ = >2.5 relative activity over WT GLA (SEQ ID NO: 5))”.

And the “Relative Activity … at pH 7.0” value [3]?
The value was “++ (++ = >1.5 to 2.5 relative activity over WT GLA (SEQ ID NO: 5))”.

B8: 5 (protein)
chain: B1 chain with I208V, R373K
modifications: Synthetic Polypeptide sequence of Variant No. 5 of mature Human GLA
Which results are given for B8?
Relative Activity of GLA Variants After No Challenge (NC) [1]: ++ (++ = >1.5 to 2.5 relative activity over WT GLA (SEQ ID NO: 5)); Relative Activity of GLA Variants After Challenge at pH 4.3 [2]: ++ (++ = >1.5 to 2.5 relative activity over WT GLA (SEQ ID NO: 5)); Relative Activity of GLA Variants After Challenge at pH 7.0 [3]: ++ (++ = >1.5 to 2.5 relative activity over WT GLA (SEQ ID NO: 5))

B9: 13 (protein)
chain: B1 chain with D48E, N247D, R373K, I376V
modifications: Synthetic Polypeptide sequence of Variant No. 13 of mature Human GLA
For B9, which “Relative Activity of GLA Variants After No Challenge (NC)” value [1] is on record?
Its value is “++ (++ = >1.5 to 2.5 relative activity over WT GLA (SEQ ID NO: 5))”.

And the “Relative Activity … at pH 4.3” value [2]?
The value was “+++ (+++ = >2.5 relative activity over WT GLA (SEQ ID NO: 5))”.

What about the “Relative Activity … at pH 7.0” value [3] of the same molecule?
The value was “++ (++ = >1.5 to 2.5 relative activity over WT GLA (SEQ ID NO: 5))”.

B10: 15 (protein)
chain: B1 chain with D43E, I208V, Q299R, Q302K, R373K
modifications: Synthetic Polypeptide sequence of Variant No. 15 of mature Human GLA
Which results are given for B10?
Relative Activity of GLA Variants After No Challenge (NC) [1]: + (+ = 0.5 to 1.5 relative activity over WT GLA (SEQ ID NO: 5)); Relative Activity of GLA Variants After Challenge at pH 4.3 [2]: + (+ = 0.5 to 1.5 relative activity over WT GLA (SEQ ID NO: 5)); Relative Activity of GLA Variants After Challenge at pH 7.0 [3]: + (+ = 0.5 to 1.5 relative activity over WT GLA (SEQ ID NO: 5))

B11: 4 (protein)
chain: B1 chain with I208V, N247D, Q299R, Q302K, R373K, I376V
modifications: Synthetic Polypeptide sequence of Variant No. 4 of mature Human GLA
For B11, which “Relative Activity of GLA Variants After No Challenge (NC)” value [1] is on record?
Its value is “+ (+ = 0.5 to 1.5 relative activity over WT GLA (SEQ ID NO: 5))”.

And the “Relative Activity … at pH 4.3” value [2]?
Its value is “+++ (+++ = >2.5 relative activity over WT GLA (SEQ ID NO: 5))”.

What about the “Relative Activity … at pH 7.0” value [3] of the same molecule?
Its value is “+ (+ = 0.5 to 1.5 relative activity over WT GLA (SEQ ID NO: 5))”.

B12: 12 (protein)
chain: B1 chain with D48E, I208V, Q299R, R373K, I376V
modifications: Synthetic Polypeptide sequence of Variant No. 12 of mature Human GLA
Which “Relative Activity of GLA Variants After No Challenge (NC)” value [1] does the source give for B12 here?
Its value is “+ (+ = 0.5 to 1.5 relative activity over WT GLA (SEQ ID NO: 5))”.

And the “Relative Activity … at pH 4.3” value [2]?
The value was “++ (++ = >1.5 to 2.5 relative activity over WT GLA (SEQ ID NO: 5))”.

And the “Relative Activity … at pH 7.0” value [3]?
Its value is “+ (+ = 0.5 to 1.5 relative activity over WT GLA (SEQ ID NO: 5))”.

B13: 8 (protein)
chain: B1 chain with N247D, Q302K, R373K
modifications: Synthetic Polypeptide sequence of Variant No. 8 of mature Human GLA
Which “Relative Activity of GLA Variants After No Challenge (NC)” value [1] does the source give for B13 here?
Its value is “++ (++ = >1.5 to 2.5 relative activity over WT GLA (SEQ ID NO: 5))”.

What about the “Relative Activity … at pH 4.3” value [2] of the same molecule?
The value was “+++ (+++ = >2.5 relative activity over WT GLA (SEQ ID NO: 5))”.

And the “Relative Activity … at pH 7.0” value [3]?
Its value is “+++ (+++ = >2.5 relative activity over WT GLA (SEQ ID NO: 5))”.
